Data on one protein can be found in article PMC3977576 (Biochemistry, 2014).

A word on the stoichiometry N: it is a count of units in the complex or per binding partner.

The data set deals with the molecule itself. The data set is described as follows: SEC-MALS. For orientation: SEC sorts molecules by how far they enter the pores of the column.

B1: IKK2EE(11–669) (domain or fragment)
chain: TCGAWEMKERLGTGGFGNVIRWHNQETGEQIAIKQCRQELSPRNRERWCLEIQIMRRLTHPNVVAARDVPEGMQNLAPNDLPLLAMEYCQGGDLRKYLNQFENCCGLREGAILTLLSDIASALRYLHENRIIHRDLKPENIVLQQGEQRLIHKIIDLGYAKELDQGELCTEFVGTLQYLAPELLEQQKYTVTVDYWSFGTLAFECITGFRPFLPNWQPVQWHSKVRQKSEVDIVVSEDLNGTVKFSSSLPYPNNLNSVLAERLEKWLQLMLMWHPRQRGTDPTYGPNGCFKALDDILNLKLVHILNMVTGTIHTYPVTEDESLQSLKARIQQDTGIPEEDQELLQEAGLALIPDKPATQCISDGKLNEGHTLDMDLVFLFDNSKITYETQISPRPQPESVSCILQEPKRNLAFFQLRKVWGQVWHSIQTLKEDCNRLQQGQRAAMMNLLRNNSCLSKMKNSMASMSQQLKAKLDFFKTSIQIDLEKYSEQTEFGITSDKLLLAWREMEQAVELCGRENEVKLLVERMMALQTDIVDLQRSPMGRKQGGTLDDLEEQARELYRRLREKPRDQRTEGDSQEMVRLLLQAIQSFEKKVRVIYTQLSKTVVCKQKALELLPKVEEVVSLMNEDEKTVVRLQEKRQKELWNLLKIACSKVRGPV
For the protein B1, the “stoichiometry N” value stood at 2.
